Experiments:
αβγENaC = biological target: T1, αβγENaC (Rattus norvegicus, UniProt P37089+P37090+P37091, R138K/R205K/R231K); assay: Amiloride-sensitive whole cell current, two electrode voltage clamp, Xenopus laevis oocytes expressing αβγENaC; type: cell-based; settings: SPLUNC1 co-expressed
T1 construct: expressed in transfected cells; host or cells: Xenopus laevis oocytes (cRNA injection)
T1 sequence (P37089 1-698 R205K/R231K): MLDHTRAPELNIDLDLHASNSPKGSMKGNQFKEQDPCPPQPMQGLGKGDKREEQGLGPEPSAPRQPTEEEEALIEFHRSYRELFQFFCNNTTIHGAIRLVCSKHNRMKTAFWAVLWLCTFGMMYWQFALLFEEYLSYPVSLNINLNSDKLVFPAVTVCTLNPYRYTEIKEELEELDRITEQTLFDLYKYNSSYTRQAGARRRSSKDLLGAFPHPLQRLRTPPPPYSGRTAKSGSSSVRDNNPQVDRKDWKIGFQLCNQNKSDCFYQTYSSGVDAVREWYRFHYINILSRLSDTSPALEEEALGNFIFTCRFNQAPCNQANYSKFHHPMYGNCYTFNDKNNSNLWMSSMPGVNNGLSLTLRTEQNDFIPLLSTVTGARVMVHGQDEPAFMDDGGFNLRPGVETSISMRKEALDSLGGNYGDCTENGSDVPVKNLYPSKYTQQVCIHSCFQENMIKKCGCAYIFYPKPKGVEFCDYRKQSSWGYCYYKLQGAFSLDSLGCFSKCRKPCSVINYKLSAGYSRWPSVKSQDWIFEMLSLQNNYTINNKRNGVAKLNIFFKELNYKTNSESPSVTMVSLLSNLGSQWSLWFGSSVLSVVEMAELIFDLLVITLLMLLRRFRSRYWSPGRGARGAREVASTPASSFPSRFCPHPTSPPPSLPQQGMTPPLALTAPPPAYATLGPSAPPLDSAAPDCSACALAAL
T1 sequence (P37090 1-638): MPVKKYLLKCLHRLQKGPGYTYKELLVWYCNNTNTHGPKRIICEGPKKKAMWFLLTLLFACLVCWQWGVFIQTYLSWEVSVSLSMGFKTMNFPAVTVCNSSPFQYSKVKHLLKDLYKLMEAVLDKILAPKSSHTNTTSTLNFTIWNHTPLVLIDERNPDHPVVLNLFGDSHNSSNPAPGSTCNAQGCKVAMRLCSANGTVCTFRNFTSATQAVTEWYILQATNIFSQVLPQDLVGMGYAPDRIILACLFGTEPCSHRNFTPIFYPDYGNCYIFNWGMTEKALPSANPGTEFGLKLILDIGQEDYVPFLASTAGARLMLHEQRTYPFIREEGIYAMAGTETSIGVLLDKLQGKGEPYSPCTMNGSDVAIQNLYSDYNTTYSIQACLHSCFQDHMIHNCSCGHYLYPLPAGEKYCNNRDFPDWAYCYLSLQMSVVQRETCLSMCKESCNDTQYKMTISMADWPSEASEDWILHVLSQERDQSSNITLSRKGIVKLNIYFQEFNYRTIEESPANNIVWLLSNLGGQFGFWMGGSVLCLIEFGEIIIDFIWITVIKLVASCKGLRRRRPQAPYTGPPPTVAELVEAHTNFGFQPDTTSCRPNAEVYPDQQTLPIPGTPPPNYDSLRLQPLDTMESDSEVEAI
T1 sequence (P37091 1-650 R138K): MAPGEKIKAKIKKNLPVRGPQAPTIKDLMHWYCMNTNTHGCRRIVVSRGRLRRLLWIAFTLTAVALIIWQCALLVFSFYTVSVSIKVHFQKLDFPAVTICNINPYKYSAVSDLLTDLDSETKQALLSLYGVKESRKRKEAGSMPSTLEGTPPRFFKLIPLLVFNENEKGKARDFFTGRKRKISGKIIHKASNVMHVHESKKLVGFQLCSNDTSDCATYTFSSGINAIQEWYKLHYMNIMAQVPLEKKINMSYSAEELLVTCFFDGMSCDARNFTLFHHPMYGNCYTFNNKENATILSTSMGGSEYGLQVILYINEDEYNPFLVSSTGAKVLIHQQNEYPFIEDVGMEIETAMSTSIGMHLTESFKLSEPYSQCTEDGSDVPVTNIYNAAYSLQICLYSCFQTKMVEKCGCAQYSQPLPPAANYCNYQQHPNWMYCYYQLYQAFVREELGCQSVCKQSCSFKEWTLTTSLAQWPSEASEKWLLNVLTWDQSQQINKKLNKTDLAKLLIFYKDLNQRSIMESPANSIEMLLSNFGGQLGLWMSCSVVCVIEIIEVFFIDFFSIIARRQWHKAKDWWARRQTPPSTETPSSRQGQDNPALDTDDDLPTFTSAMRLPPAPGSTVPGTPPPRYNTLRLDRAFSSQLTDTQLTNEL

CFTR = biological target: T2, CFTR (Homo sapiens, UniProt P13569); assay: CFTR activity in Xenopus oocytes co-expressing β2 adrenergic receptor, isoproterenol stimulated; type: cell-based; settings: 10 μM isoproterenol
T2 construct: expressed in transfected cells; host or cells: Xenopus oocytes
T2 sequence (P13569 whole entry, species assumed): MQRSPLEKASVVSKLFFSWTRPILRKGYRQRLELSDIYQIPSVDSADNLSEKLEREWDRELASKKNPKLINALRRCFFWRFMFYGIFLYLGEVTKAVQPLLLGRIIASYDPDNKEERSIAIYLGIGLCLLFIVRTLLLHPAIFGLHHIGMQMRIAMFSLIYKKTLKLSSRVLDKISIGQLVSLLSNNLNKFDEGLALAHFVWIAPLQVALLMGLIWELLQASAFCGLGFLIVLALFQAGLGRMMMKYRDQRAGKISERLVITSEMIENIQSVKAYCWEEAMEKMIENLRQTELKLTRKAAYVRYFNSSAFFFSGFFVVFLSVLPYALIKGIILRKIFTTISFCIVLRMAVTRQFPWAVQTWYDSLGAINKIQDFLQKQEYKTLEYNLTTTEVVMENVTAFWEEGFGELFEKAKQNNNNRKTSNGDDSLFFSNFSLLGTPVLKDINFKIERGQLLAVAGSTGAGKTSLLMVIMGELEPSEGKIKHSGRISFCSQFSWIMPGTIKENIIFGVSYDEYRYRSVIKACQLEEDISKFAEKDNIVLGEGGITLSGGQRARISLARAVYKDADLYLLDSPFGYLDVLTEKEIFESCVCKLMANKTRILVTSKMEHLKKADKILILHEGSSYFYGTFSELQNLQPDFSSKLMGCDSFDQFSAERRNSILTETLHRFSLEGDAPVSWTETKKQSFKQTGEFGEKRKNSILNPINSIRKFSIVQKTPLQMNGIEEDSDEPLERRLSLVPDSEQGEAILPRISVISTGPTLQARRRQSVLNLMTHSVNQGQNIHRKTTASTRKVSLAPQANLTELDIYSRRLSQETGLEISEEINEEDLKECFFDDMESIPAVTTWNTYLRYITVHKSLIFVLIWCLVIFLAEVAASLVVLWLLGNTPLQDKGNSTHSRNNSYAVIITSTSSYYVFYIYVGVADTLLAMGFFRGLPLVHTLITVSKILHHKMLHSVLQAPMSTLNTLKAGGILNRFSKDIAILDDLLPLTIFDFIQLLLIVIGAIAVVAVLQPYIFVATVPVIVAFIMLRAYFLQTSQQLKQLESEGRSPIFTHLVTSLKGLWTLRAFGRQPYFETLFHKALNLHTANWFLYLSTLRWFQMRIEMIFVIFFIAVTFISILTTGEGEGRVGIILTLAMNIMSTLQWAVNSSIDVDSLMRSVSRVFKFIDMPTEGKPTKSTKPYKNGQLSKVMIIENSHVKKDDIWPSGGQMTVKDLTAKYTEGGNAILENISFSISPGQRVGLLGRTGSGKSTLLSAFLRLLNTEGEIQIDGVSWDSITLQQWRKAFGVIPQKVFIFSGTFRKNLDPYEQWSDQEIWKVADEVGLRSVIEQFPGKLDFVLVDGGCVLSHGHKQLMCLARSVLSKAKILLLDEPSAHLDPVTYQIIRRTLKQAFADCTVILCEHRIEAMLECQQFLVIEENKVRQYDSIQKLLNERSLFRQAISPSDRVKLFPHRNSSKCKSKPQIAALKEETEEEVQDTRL

B1: SPLUNC1: human SPLUNC1 (SEQ ID NO:1), 256 amino acid secreted PLUNC family protein; rSPLUNC1 is the purified V5/6His-tagged recombinant form (protein, listed as Homo sapiens)
chain: MFQTGGLIVFYGLLAQTMAQFGGLPVPLDQTLPLNVNPALPLSPTGLAGSLTNALSNGLLSGGLLGILENLPLLDILKPGGGTSGGLLGGLLGKVTSVIPGLNNIIDIKVTDPQLLELGLVQSPDGHRLYVTIPLGIKLQVNTPLVGASLLRLAVKLDITAEILAVRDKQERIHLVLGDCTHSPGSLQISLLDGLGPLPIQGLLDSLTGILNKVLPELVQGNVCPLVNEVLRGLDITLVHDIVNMLIHGLQFVIKV
modifications: V5/6His tag in recombinant form
notes: rSPLUNC1 is the purified V5/6His-tagged recombinant form
B1 was tested, and the “current of furin-insensitive αR205,231K,β,γR138K ENaC mutant” value (αβγENaC) was “also inhibited”, the CFTR activity (CFTR; 5 ng/ml rSPLUNC1 exposure) was “no inhibitory effect on CFTR activity” and the CFTR activity (CFTR; injection of SPLUNC1 cRNA) was “no inhibitory effect on CFTR activity”.
